From patent US20260116991A1 (HAINAN SIMCERE ZAIMING PHARMACEUTICAL, published 2026) come the findings set out here.

Test [1] addresses T1, GPC3 endogenously expressed on HepG2 cells (UniProt P51654 25-554).
T1 construct: whole, on cells
In words: FACS on HepG2 cells.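 Also: flow cytometric binding of chimeric antibodies to cells, read as mean fluorescence intensity, EC50 obtained by curve fitting of the MFI data.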
Protocol: (§1) The desired cells were expanded to a logarithmic growth phase in a T-75 cell culture flask, the medium was removed by pipetting, and the cells were washed twice with a PBS buffer, and digested with trypsin. Then a complete medium was added to stop the digestion, and the cells were blown into a single cell suspension. After counting, the cells were centrifuged, and the cell pellet was resuspended with an FACS buffer (PBS+2% fetal bovine serum) to 2×10⁶ cells/mL. The cell resuspension solution was added to a 96-well FACS reaction plate at 50 μl/well, and a chimeric antibody sample to be tested was added at 50 μl/well for incubation at 4° C. for 1 h. […] After the plate was centrifuged and washed 3 times with a PBS buffer, 100 μl of the resulting solution was assayed and analyzed by FACS (FACS Canto™, purchased from BD Biosciences). Data analysis was performed by software (FlowJo) to obtain the mean fluorescence intensity (MFI) of the cells. Then, analysis was performed by software (GraphPad Prism8), data were fitted, and EC₅₀ values were calculated.

For test [2], the target named is T2, human GPC3 on CHO-K1-human GPC3 cells (clone CHOK1-hGPC3.2B5) (human, UniProt P51654 25-554).
T2 construct: whole, on cells; Stably transfected CHO-K1 clone 2B5
In words: FACS on CHOK1-hGPC3.2B5 cells.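 Also: flow cytometry binding of chimeric antibodies to the cells, read out as mean fluorescence intensity, with the half-maximal concentration derived by curve fitting.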
Protocol: as §1

Test [3] addresses T3, human GPC3-His protein (human, UniProt P51654 25-559).
T3 construct: Bought protein; also called human GPC3 protein; not shown: His tag
Kind of test: ELISA, coated human GPC3, antibody 1 nM.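 Also: antigen coated at 1 µg/mL on 96-well plates, antibody bound for 2 h at 37 °C, detected with HRP-labeled secondary antibody and TMB, absorbance read at 450 nm.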

The target of test [4] is T3, human GPC3-His protein. In words: ELISA, coated human GPC3, antibody 10 nM.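 Also: plate coated with antigen at 1 µg/mL, antibodies bound 2 h at 37 °C, detected via HRP-conjugated secondary antibody and TMB substrate, absorbance read after acid stop.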 Background: ELISA stands for enzyme-linked immunosorbent assay.
For test [5], the target named is T3, human GPC3-His protein. Kind of test: ELISA, coated human GPC3, antibody 0.1 nM.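 Also: antigen coated on 96-well plates at 1 µg/mL, antibody bound 2 h at 37 °C, detected with HRP-labeled secondary antibody and TMB substrate, acid-stopped.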
For test [6], the target named is T3, human GPC3-His protein. In words: ELISA, coated human GPC3, antibody 100 nM.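 Also: antibodies bound to antigen-coated 96-well plates (1 µg/mL), 2 h at 37 °C, detected with HRP-labelled secondary antibody and TMB substrate, absorbance read at 450 nm.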
Protocol: (§2) The specific method is described as follows: The antigen protein was diluted with PBS to a final concentration of 1 μg/mL, and the diluent was added to a 96-well ELISA plate at 50 μL/well. The plate was sealed with a plastic film and incubated at 4° C. overnight, washed twice with PBS the next day, and a blocking solution [PBS+2% (w/w) BSA] was added for blocking at room temperature for 2 h. […] After incubation at 37° C. for 2 h, the plate was washed 3 times with PBS. A horseradish peroxidase (HRP)-labeled secondary antibody (purchased from Merck, Cat. No. AP113P) was added for incubation at 37° C. for 1 h, and the plate was washed 5 times with PBS. A TMB substrate was added at 50 μL/well for incubation at room temperature for 10 min, then a stop solution (1.0M HCl) was added at 50 μL/well. An ELISA plate reader (Multimode Plate Reader, EnSight, purchased from Perkin Elmer) was used to read OD_{450 nm} values, with results as shown in Table 4 to Table 6, FIG. 1A, FIG. 1B, and FIG. 1C.
The target of test [7] is T3, human GPC3-His protein. In words: ELISA, coated human GPC3, antibody 0.01 nM.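 Also: Plate-bound antigen coated at 1 µg/mL, antibody incubated 2 h at 37 °C, binding detected by HRP-conjugated secondary antibody with TMB substrate, read as absorbance at 450 nm.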
Protocol: as §2
Test [8] addresses T3, human GPC3-His protein. In words: ELISA, coated human GPC3, antibody 0.001 nM.
For test [9], the target named is T3, human GPC3-His protein. In words: ELISA, coated human GPC3, antibody 0.0001 nM.

B1: F1.21.8 human-murine chimeric antibody (antibody, human IgG1, kappa, V domains shown)
VH: EVQLQQSGPELVKPGASVKISCKTSGFLFTGHYMHWVKSSHGNILDWIGYIYPYNAISFYNQKFKGKATLTVDKSSNTAYMELRSLTSEDSAVYYCARGDYGNYVTAYWGQGTLVTVSA
VL: DVLMTQTPLSLPVSLGDQASISCRSSQSIVHSSGNTYLEWYLQKPGQSPKLLIYKVSNRFSGVPDRFSGSGSGTDFTLKISRVEAEDLGVYYCFQGSHLPWTFGGGTKLDIKR
Usually EC50 stands for the midpoint of the concentration-response curve. Low readings indicate a more potent agent, high ones a less potent agent. Regarding B1, the figures for the concentration for a half-maximal effect (EC50) in test [1] and in test [2] were 0.36 nM and 0.68 nM, respectively. The results for the “Max MFI” value in test [1] and in test [2] were 2190 MFI and 10700 MFI, respectively. The OD450 nm is 1.71 OD450 in [3]; 1.7 OD450 in [4]; 0.9 OD450 in test [5]; 2 OD450 in test [6]; 0.25 OD450 in [7]; 0.12 OD450 in test [8]. In [9], the OD450 nm is 0.08 OD450.

B2: F1.2.14 human-murine chimeric antibody (antibody, human IgG1, kappa, V domains shown)
VH: RVQLQQSGAELVKPGASVRMSCKASGYTFTAYSIEWMKQNLGKSLEWIGNFRPYNDDTKYNENFKGRATLTVEKSSATVYLELSRLTSDDSAVYYCARSGPTDYFDYWGQGTTLIVSS
VL: DIQMTQSPASLSASVGETVTITCRASDNIYSYLAWYQQKQGQSPQLLVYNAKTLAEGVPSRFSGSGSVTQFSLKIISLQPEDFGTYYCQHHFGTPRTFGGGTKLEIKR
B2: the figures for the concentration giving a half-maximal response (EC50) in [1] and in [2] were 2.13 nM and 1.67 nM, respectively. Also, the “Max MFI” value was found to be 1860 MFI in test [1] and 8280 MFI in [2]. In addition, the OD450 nm in test [3] was determined as 1.24 OD450; in test [4] it was 1.47 OD450; in test [5], 0.61 OD450; in [6] it was 1.84 OD450; in test [7], 0.17 OD450; in [8], 0.1 OD450. For the same molecule, the OD450 nm in test [9] was 0.08 OD450.

B3: F1.57.21 human-murine chimeric antibody (antibody, human IgG1, kappa, V domains shown)
VH: QVQLQQSGAELARPGASVKLSCKASGYTFTSYGISWVKQITGQGLEWIGEIYPRSESTYYNEKFKGKATLTADKSSSTAYMELRSLTSEDSAVYFCARDYGNIYSFAYWGQGTLVTVSA
VL: DIQMTQSPASLSASVGETVTITCRTSENIYSYLAWYQQKQGKSPQLLVYNAKTLAEGVPSRFSGSGSGTQFSLKINSLQPEDFGSYYCQHHYGTPLTFGAGTKLELKR
Regarding B3, the concentration for a half-maximal effect (EC50) in test [1] was determined as 0.71 nM; in test [2] it was 1.36 nM. The results for the “Max MFI” value in test [1] and in test [2] were 1650 MFI and 9360 MFI, respectively. Also, the OD450 nm in test [3] turned out to be 1.5 OD450; in test [4] it was 2.02 OD450; in test [5], 0.8 OD450; in test [6], 2.35 OD450; in [7], 0.21 OD450; in [8], 0.11 OD450. The OD450 nm in test [9] stood at 0.08 OD450.

B4: F1.92.17 human-murine chimeric antibody (antibody, human IgG1, kappa, V domains shown)
VH: EVQLQQSGPELVKPGASVKMSCKASGYTFTDYNMHWVRQSHGKSLEWIGYINPNNGDTIYNQNFKGKATLTVNKSSSTAYMELRSLTSEDSAVYYCSRTITYYYSMDYWGPGTSVTVSS
VL: QIVLTQSPALMSASPGEKVTMTCSASSSVSYMYWYQQKPRSSPKPWIYLTSNLASGVPARFSGSGSGTSYSLTISSMEAEDAATYYCQQWSSNPLTFGAGTKLELKR
Turning to B4, the concentration for a half-maximal effect (EC50) in test [1] was determined as 2.9 nM; in test [2], 2.04 nM. Besides, the entries for the “Max MFI” value in [1] and in test [2] were 2300 MFI and 9600 MFI, respectively. The OD450 nm in test [3] is 0.68 OD450; in test [4] it was 1.19 OD450; in test [5] it was 0.25 OD450; in test [6] it was 0.66 OD450; in test [7], 0.11 OD450; in [8], 0.09 OD450. The OD450 nm in [9] came to 0.08 OD450.

B5: F1.41.17 human-murine chimeric antibody (antibody, human IgG1, kappa, V domains shown)
VH: EVQLVESGGDSVKPGGSLKLSCAASGFTFSSYGMSWVRQTPDKRLEWVATINSGGSYTYYQDSVKGRFTISRDNAKNTLYLQMSSLKSEDTAIYYCVRHHYGSSYDYFDYWGQGTTLTVSS
VL: DIVMTQAAPSVPVMPGESVSISCRSSKSLLHSNGNTHLYWFLQRPGQSPQLLIYRMSNLASGVPDRFSGSGSGTAFTLRISRVEAEDVGVYYCMQHLEYPLTFGAGTKLELKR
Turning to B5, the concentration for a half-maximal effect (EC50) stood at 0.2 nM in test [1] and 0.55 nM in test [2]. Also, the “Max MFI” value in [1] stood at 1990 MFI; in [2], 9930 MFI. Also, the OD450 nm was 1.68 OD450 in test [3]; 1.59 OD450 in [4]; 0.97 OD450 in [5]; 1.51 OD450 in [6]; 0.24 OD450 in [7]; 0.11 OD450 in test [8]. In test [9], the OD450 nm came out at 0.08 OD450.

B6: F1.110.24 human-murine chimeric antibody (antibody, human IgG1, kappa, V domains shown)
VH: EVKLVESGGGLVQPGGSLKLSCAASGFTFSDFYMYWVRQTPEKRLEWVAFISNGGGSTYYPDTVKGRFTISRDNVKNTLYLQMSRLKSEDTAMYYCARPDTSWFAYWGQGSLVTVSA
VL: DIQMTQTTSSLSASLGDRVTISCRASQDIDNYLNWYQQKPDGTVKVLISYTSRLHSGVPSRFSGSGSGTDYSLTISNLEQEDIATYFCQQGNTLPWTFGGGTKLEIKR
For the molecule B6, the results for the EC50 in test [1] and in test [2] were 0.83 nM and 0.9 nM, respectively. The “Max MFI” value in test [1] was determined as 2270 MFI; in test [2] it was 9370 MFI. Moreover, the OD450 nm in test [3] was 0.77 OD450; in test [4], 1.18 OD450; in [5], 0.42 OD450; in test [6], 0.62 OD450; in [7], 0.13 OD450; in [8] it was 0.09 OD450. Moreover, in test [9], the OD450 nm is 0.08 OD450.

B7: F1.42.8 human-murine chimeric antibody (antibody, human IgG1, kappa, V domains shown)
VH: HVQLQQPGAELVKPGASVKLSCKASGYTFTSYWMHWVRQRPGQGLEWIEMIHPNSGSTNYNEKFKSKATLTVDKSSSTAYMQLSSLTSEDSAVYYCARGNYNSSLYAMDYWGQGTSVTVSS
VL: DIQMTQTTSSLSASLGDRVTISCSASQGISNYLNWYQQKPDGTVKLLIYYASNLHSGVPSRFSGSGSGTAYSLTISNLEPEDIATYYCQQYSILPYTFGGGTKLEIKR
For the molecule B7, the concentration for a half-maximal effect (EC50) in [1] came to 0.21 nM; in test [2] it was 0.4 nM. Besides, the figures for the “Max MFI” value in test [1] and in test [2] were 2090 MFI and 9420 MFI, respectively. Also, the OD450 nm in [3] was determined as 2.02 OD450; in [4], 2.31 OD450; in [5] it was 1.22 OD450; in [6], 2.56 OD450; in test [7], 0.3 OD450; in [8] it was 0.13 OD450. The OD450 nm in [9] stood at 0.1 OD450.

B8: F1.73.9 human-murine chimeric antibody (antibody, human IgG1, kappa, V domains shown)
VH: QVQLKQSGAELVRPGASVKLSCKASGYTFTDYYINWVKQRPGQGLEWIARIYPGSGNTYYNEKFKGKATLTAEKSSSTAYMQFSSLTSEDSAVYFCACSTYYTMDYWGQGTSVTVSS
VL: QIVLTQSPAIMSASLGERVTMTCTASSGVSSSYLHWYQQKPGSSPKLWIYTTSNLASGVPARFSGSGSGTSYSLTISSMEAEDAATYYCHQYHRSPYTFGGGTKLEIKR
In the case of B8, the EC50 in test [1] was 0.25 nM; in test [2], 0.66 nM. Besides, the “Max MFI” value worked out at 1880 MFI in [1] and 8850 MFI in test [2]. The OD450 nm in [3] is 1.33 OD450; in [4], 1.74 OD450; in [5], 0.86 OD450; in [6], 1.46 OD450; in [7], 0.23 OD450; in [8], 0.11 OD450. Also, the OD450 nm in [9] is 0.09 OD450.

B9: F1.78.24 human-murine chimeric antibody (antibody, human IgG1, kappa, V domains shown)
VH: QVQLQQSGAELVKPGASVKMSCKASGYTFTTYPIEWMKQNHGKSLEWIGNFHPYNDDTNYNVKFKGKATLTVEKSSSTVYLELSRLTSDDSALYYCARRREYYGSFDVWGTGTTVTVSS
VL: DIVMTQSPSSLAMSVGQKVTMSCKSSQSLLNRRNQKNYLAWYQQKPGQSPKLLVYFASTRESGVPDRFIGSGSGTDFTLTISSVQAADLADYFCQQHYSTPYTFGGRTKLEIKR
Take B9: the EC50 in [1] stood at 0.31 nM; in test [2], 0.76 nM. The “Max MFI” value in test [1] stood at 2120 MFI; in test [2] it was 10400 MFI. Moreover, the OD450 nm is 0.72 OD450 in [3]; 1.07 OD450 in [4]; 0.66 OD450 in test [5]; 0.45 OD450 in test [6]; 0.19 OD450 in test [7]; 0.12 OD450 in test [8]. In test [9], this molecule showed an OD450 nm of 0.09 OD450.

B10: F1.83.6 human-murine chimeric antibody (antibody, human IgG1, kappa, V domains shown)
VH: QVQLQQSGPELVKPGASVKISCKASGYAFSSSWMNWVKQRPGKGLEWIGRIYPGDGDTNYNGRFKGKATLTVDKSSSTAYMQLSSLTSEDSAVYFCARGGVFTMALDHWGQGTTLTVSS
VL: DIQMTQSPSSLSASLGGKVTITCKASQDINKYIAWYQHKPGKGPRLLIHYTSTLQPGIPSRFSGSGSGRDYSFSISNLEPEDIATYYCLQYDNLFTFGGGTKLEIKR
Consider B10, for which the EC50 in test [1] was 0.87 nM; in test [2], 1.1 nM. Also, the “Max MFI” value in test [1] was 2340 MFI; in test [2] it was 10100 MFI. The OD450 nm in test [3] was found to be 0.83 OD450; in [4] it was 1.19 OD450; in test [5], 0.4 OD450; in [6] it was 0.76 OD450; in [7] it was 0.17 OD450; in test [8], 0.1 OD450. In test [9], the OD450 nm was determined as 0.08 OD450.
